Source: patent publication US20230034906A1 (TRINOMAB BIOTECH, published 2023)
Where a chain is given by its changes, count along the chain named.

Assays:
Assay in all cases: indirect ELISA, antibody titrated on gB glycoprotein mutant
[1] = molecular target: T1, gB_Towne protein with N452 mutated into glutamine (human cytomegalovirus, strain Towne, UniProt F5HB53 25-700)
T1 chain: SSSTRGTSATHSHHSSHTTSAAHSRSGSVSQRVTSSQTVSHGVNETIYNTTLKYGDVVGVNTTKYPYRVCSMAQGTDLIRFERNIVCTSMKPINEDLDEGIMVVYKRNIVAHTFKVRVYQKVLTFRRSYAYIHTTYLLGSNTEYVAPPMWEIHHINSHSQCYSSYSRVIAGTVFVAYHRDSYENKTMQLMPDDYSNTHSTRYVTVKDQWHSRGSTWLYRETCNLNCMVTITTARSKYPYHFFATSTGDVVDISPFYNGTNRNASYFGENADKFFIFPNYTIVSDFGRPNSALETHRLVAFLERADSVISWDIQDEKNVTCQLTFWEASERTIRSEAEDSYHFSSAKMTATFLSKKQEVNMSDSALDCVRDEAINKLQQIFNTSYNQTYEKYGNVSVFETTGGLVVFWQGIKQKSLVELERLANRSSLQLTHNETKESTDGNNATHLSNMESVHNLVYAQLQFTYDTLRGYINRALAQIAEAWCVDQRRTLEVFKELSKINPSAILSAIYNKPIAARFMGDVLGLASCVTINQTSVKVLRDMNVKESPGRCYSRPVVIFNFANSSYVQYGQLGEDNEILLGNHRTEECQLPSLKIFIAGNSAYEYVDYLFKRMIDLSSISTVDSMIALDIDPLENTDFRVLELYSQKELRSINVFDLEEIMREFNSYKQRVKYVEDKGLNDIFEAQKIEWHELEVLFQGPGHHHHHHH

[2] = molecular target: T2, gB_Towne protein with N456 mutated into glutamine (human cytomegalovirus, strain Towne, UniProt F5HB53 25-700)
T2 chain: T1 chain with Q428N, N432Q

[3] = molecular target: T3, gB_Towne protein with N417 mutated into glutamine (human cytomegalovirus, strain Towne, UniProt F5HB53 25-700)
T3 chain: T1 chain with N393Q, Q428N

[4] = molecular target: T4, gB_Towne protein with N341 mutated into glutamine (human cytomegalovirus, strain Towne, UniProt F5HB53 25-700)
T4 chain: T1 chain with N317Q, Q428N

Measured: binding result

B1: TRN1019 (antibody, V domains shown)
VH: QVQLVQSGAEVKKPGESLKISCKGSGYTFTNYWIGWVRQMPGAGLEWMAIIFPRDSYSAYSPSFQGRVTISVDKSISTAYLHWSSLEASDTAVYYCAIYNDLRSGNSWGQGTPLIVSS
VL: DIQMTQSPSSLSASVGDRVTITCRASQSITKYLNWYQQKPGRAPKLLIHTTSTLQSGVPSRFSGSGSGTDFTLTISSLQLEDFGTYYCQQSFSTLWTFGQGTKLDIKR
notes: Fully human antibody; kappa light chain
binds: all assays above
